Laboratory results from publication PMC10397247.
Read-outs that look alike come from different tables or passages of the source. Blank lines part the entries; values can stand above or below the binder they belong to.

Assays:
Assay in all cases: two-hybrid library CCmax;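 also: natural log of median RNA to DNA barcode read ratio; higher means stronger binding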
4H2774-AA = target: T1, 4H2774-AA
T1 chain: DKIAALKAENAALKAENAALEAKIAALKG

4H2903-AA = target: T2, 4H2903-AA; conditions: mean of both orientations
T2 chain: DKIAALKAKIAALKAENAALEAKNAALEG

4H2931-AA = target: T3, 4H2931-AA; conditions: mean of both orientations
T3 chain: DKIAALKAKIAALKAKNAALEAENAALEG

4H2947-AA = target: T4, 4H2947-AA; conditions: mean of both orientations
T4 chain: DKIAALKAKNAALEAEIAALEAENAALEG

4H2961-AA = target: T5, 4H2961-AA; conditions: mean of both orientations
T5 chain: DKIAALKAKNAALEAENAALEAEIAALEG

4H3001-AA = target: T6, 4H3001-AA; conditions: mean of both orientations
T6 chain: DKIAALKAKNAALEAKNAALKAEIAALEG

4H3015-AA = target: T7, 4H3015-AA; conditions: mean of both orientations
T7 chain: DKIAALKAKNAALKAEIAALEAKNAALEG

4H3049-AA = target: T8, 4H3049-AA; conditions: mean of both orientations
T8 chain: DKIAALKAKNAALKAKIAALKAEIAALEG

4H3073-AA = target: T9, 4H3073-AA; conditions: mean of both orientations
T9 chain: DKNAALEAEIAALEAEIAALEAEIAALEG

4H3094-AA = target: T10, 4H3094-AA; conditions: mean of both orientations
T10 chain: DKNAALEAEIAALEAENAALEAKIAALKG

4H3129-AA = target: T11, 4H3129-AA; conditions: mean of both orientations
T11 chain: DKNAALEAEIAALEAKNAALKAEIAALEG

4H324-AA = target: T12, 4H324-AA; conditions: mean of both orientations
T12 chain: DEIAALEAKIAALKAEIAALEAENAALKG

4H3340-AA = target: T13, 4H3340-AA; conditions: mean of both orientations
T13 chain: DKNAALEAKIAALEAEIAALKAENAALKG

4H3381-AA = target: T14, 4H3381-AA; conditions: mean of both orientations
T14 chain: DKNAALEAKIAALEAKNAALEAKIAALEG

4H341-AA = target: T15, 4H341-AA; conditions: mean of both orientations
T15 chain: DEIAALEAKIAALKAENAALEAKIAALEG

4H3414-AA = target: T16, 4H3414-AA; conditions: mean of both orientations
T16 chain: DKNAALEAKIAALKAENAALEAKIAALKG

4H3438-AA = target: T17, 4H3438-AA; conditions: mean of both orientations
T17 chain: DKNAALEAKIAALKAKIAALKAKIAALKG

4H3449-AA = target: T18, 4H3449-AA; conditions: mean of both orientations
T18 chain: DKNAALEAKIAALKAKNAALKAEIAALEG

4H347-AA = target: T19, 4H347-AA; conditions: mean of both orientations
T19 chain: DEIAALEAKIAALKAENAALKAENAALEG

4H3493-AA = target: T20, 4H3493-AA; conditions: mean of both orientations
T20 chain: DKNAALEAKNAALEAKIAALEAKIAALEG

4H3595-AA = target: T21, 4H3595-AA; conditions: mean of both orientations
T21 chain: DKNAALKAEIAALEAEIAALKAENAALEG

4H3619-AA = target: T22, 4H3619-AA; conditions: mean of both orientations
T22 chain: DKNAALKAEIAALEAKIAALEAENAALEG

4H3629-AA = target: T23, 4H3629-AA; conditions: mean of both orientations
T23 chain: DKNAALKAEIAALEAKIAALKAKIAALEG

4H376-AA = target: T24, 4H376-AA; conditions: mean of both orientations
T24 chain: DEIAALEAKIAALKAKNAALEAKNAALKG

4H3777-AA = target: T25, 4H3777-AA; conditions: mean of both orientations
T25 chain: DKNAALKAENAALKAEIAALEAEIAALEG

4H3782-AA = target: T26, 4H3782-AA; conditions: mean of both orientations
T26 chain: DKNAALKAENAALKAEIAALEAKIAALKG

4H380-AA = target: T27, 4H380-AA; conditions: mean of both orientations
T27 chain: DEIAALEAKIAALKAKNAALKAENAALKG

4H3915-AA = target: T28, 4H3915-AA; conditions: mean of both orientations
T28 chain: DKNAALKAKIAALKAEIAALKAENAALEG

4H3939-AA = target: T29, 4H3939-AA; conditions: mean of both orientations
T29 chain: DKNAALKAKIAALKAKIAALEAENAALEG

4H3969-AA = target: T30, 4H3969-AA; conditions: mean of both orientations
T30 chain: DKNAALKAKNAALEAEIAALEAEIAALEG

4H3974-AA = target: T31, 4H3974-AA; conditions: mean of both orientations
T31 chain: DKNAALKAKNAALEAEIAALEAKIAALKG

4H406-AA = target: T32, 4H406-AA; conditions: mean of both orientations
T32 chain: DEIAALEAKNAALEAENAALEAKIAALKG

4H432-AA = target: T33, 4H432-AA; conditions: mean of both orientations
T33 chain: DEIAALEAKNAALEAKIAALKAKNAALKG

4H446-AA = target: T34, 4H446-AA; conditions: mean of both orientations
T34 chain: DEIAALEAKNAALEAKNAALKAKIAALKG

4H452-AA = target: T35, 4H452-AA; conditions: mean of both orientations
T35 chain: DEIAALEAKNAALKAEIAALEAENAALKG

4H464-AA = target: T36, 4H464-AA; conditions: mean of both orientations
T36 chain: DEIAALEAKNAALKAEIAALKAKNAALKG

4H483-AA = target: T37, 4H483-AA; conditions: mean of both orientations
T37 chain: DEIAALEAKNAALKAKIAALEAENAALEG

4H56-AA = target: T38, 4H56-AA; conditions: mean of both orientations
T38 chain: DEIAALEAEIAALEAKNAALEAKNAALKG

4H63-AA = target: T39, 4H63-AA; conditions: mean of both orientations
T39 chain: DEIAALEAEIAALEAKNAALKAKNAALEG

4H688-AA = target: T40, 4H688-AA; conditions: mean of both orientations
T40 chain: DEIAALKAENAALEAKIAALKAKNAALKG

4H963-AA = target: T41, 4H963-AA; conditions: mean of both orientations
T41 chain: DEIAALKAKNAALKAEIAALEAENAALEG

4H_APH = target: T42, 4H_APH; conditions: mean of both orientations
T42 chain: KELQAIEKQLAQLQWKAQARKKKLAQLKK

4H_BCR = target: T43, 4H_BCR; conditions: mean of both orientations
T43 chain: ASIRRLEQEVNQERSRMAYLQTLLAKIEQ

4H_GCN4 = target: 4H_GCN4
GCN2_T = target: GCN2_T
4H2611-AA = target: T44, 4H2611-AA
T44 chain: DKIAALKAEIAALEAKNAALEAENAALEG

4H2620-AA = target: T45, 4H2620-AA; conditions: mean of both orientations
T45 chain: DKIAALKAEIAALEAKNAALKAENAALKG

4H2648-AA = target: T46, 4H2648-AA; conditions: mean of both orientations
T46 chain: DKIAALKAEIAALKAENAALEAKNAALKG

4H2907-AA = target: T47, 4H2907-AA; conditions: mean of both orientations
T47 chain: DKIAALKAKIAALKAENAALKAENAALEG

4H3056-AA = target: T48, 4H3056-AA; conditions: mean of both orientations
T48 chain: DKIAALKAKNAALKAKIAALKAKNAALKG

4H3133-AA = target: T49, 4H3133-AA; conditions: mean of both orientations
T49 chain: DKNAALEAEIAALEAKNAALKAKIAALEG

4H3162-AA = target: T50, 4H3162-AA; conditions: mean of both orientations
T50 chain: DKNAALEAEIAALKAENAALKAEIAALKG

4H32-AA = target: T51, 4H32-AA; conditions: mean of both orientations
T51 chain: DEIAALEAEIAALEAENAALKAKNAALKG

4H3378-AA = target: T52, 4H3378-AA; conditions: mean of both orientations
T52 chain: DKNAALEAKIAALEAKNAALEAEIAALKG

4H340-AA = target: T53, 4H340-AA; conditions: mean of both orientations
T53 chain: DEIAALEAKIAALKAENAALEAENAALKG

4H3413-AA = target: T54, 4H3413-AA; conditions: mean of both orientations
T54 chain: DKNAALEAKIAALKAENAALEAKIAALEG

4H3588-AA = target: T55, 4H3588-AA; conditions: mean of both orientations
T55 chain: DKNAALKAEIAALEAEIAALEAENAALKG

4H3606-AA = target: T56, 4H3606-AA; conditions: mean of both orientations
T56 chain: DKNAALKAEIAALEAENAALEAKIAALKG

4H3631-AA = target: T57, 4H3631-AA; conditions: mean of both orientations
T57 chain: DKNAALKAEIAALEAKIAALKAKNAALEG

4H3697-AA = target: T58, 4H3697-AA; conditions: mean of both orientations
T58 chain: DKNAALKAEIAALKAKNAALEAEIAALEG

4H3718-AA = target: T59, 4H3718-AA; conditions: mean of both orientations
T59 chain: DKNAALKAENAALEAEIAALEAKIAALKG

4H384-AA = target: T60, 4H384-AA; conditions: mean of both orientations
T60 chain: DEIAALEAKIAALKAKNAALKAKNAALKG

4H3865-AA = target: T61, 4H3865-AA
T61 chain: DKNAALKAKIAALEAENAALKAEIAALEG

4H697-AA = target: T62, 4H697-AA
T62 chain: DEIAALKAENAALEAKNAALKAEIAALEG

4H982-AA = target: T63, 4H982-AA; conditions: mean of both orientations
T63 chain: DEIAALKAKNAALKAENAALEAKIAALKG

4H_GCN4, sequence (chain, as listed by the source): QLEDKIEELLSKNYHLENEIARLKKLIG

interaction score (4H2774-AA): 1.65
interaction score (4H2903-AA): -1.73
interaction score (4H2931-AA): -1.98
interaction score (4H2947-AA): -1.7
interaction score (4H2961-AA): -0.737
interaction score (4H3001-AA): 0.364
interaction score (4H3015-AA): -1.48
interaction score (4H3049-AA): 1.59
interaction score (4H3073-AA): -1.43
interaction score (4H3094-AA): -0.282
interaction score (4H3129-AA): -0.715
interaction score (4H324-AA): -1.75
interaction score (4H3340-AA): -1.59
interaction score (4H3381-AA): -1.61
interaction score (4H341-AA): 0.103
interaction score (4H3414-AA): -1.5
interaction score (4H3438-AA): -1.63
interaction score (4H3449-AA): -0.756
interaction score (4H347-AA): -0.921
interaction score (4H3493-AA): -1.56
interaction score (4H3595-AA): -1.57
interaction score (4H3619-AA): -1.75
interaction score (4H3629-AA): -1.34
interaction score (4H376-AA): -2.64
interaction score (4H3777-AA): -0.668
interaction score (4H3782-AA): -1.14
interaction score (4H380-AA): -1.68
interaction score (4H3915-AA): -1.36
interaction score (4H3939-AA): -1.9
interaction score (4H3969-AA): -1.72
interaction score (4H3974-AA): -0.913
interaction score (4H406-AA): -0.207
interaction score (4H432-AA): -1.57
interaction score (4H446-AA): 1.28
interaction score (4H452-AA): -0.902
interaction score (4H464-AA): -1.18
interaction score (4H483-AA): -1.21
interaction score (4H56-AA): -1.47
interaction score (4H63-AA): -1.37
interaction score (4H688-AA): -0.923
interaction score (4H963-AA): -0.529
interaction score (4H_APH): -1.61
interaction score (4H_BCR): -0.289
interaction score (4H_GCN4): -2.24
interaction score (GCN2_T): -1.68
Binder: DKIAALKAENAALKAENAALEAKIAALKG [4H2774-AA]

interaction score (4H2611-AA): -1.29
interaction score (4H2620-AA): 0.167
interaction score (4H2648-AA): 1.2
interaction score (4H2774-AA; mean of both orientations): -1.54
interaction score (4H2907-AA): -1.28
interaction score (4H3001-AA): -1.69
interaction score (4H3056-AA): -1.57
interaction score (4H3133-AA): -1.77
interaction score (4H3162-AA): -1.57
interaction score (4H32-AA): 1.56
interaction score (4H3340-AA): -1.49
interaction score (4H3378-AA): -2.55
interaction score (4H3381-AA): -1.73
interaction score (4H340-AA): 1.81
interaction score (4H3413-AA): -1.32
interaction score (4H347-AA): -0.637
interaction score (4H3493-AA): -1.87
interaction score (4H3588-AA): -1.55
interaction score (4H3606-AA): -1.56
interaction score (4H3631-AA): -0.311
interaction score (4H3697-AA): -2.02
interaction score (4H3718-AA): -0.987
interaction score (4H376-AA): 1.87
interaction score (4H384-AA): 2.04
interaction score (4H3865-AA): -1.39
interaction score (4H406-AA): -1.29
interaction score (4H688-AA): -1.66
interaction score (4H697-AA): -2.17
interaction score (4H963-AA): -1.66
interaction score (4H982-AA): -1.45
Binder: DKIAALKAEIAALEAKNAALEAENAALEG [4H2611-AA]
